According to patent publication EP4328238A1 (Ustav organicke chemie a biochemie AV CR, v.v.i., dated 2024):

Assays:
Human C3(H2O) (human) [1] = target: Human C3(H2O) (human) (UniProt P01024); experiment: SPR (BIAcore T200, 25°C); biotinylated ISG65-Avi immobilised, C3(H2O) as analyte; column kon1
His-C3d N1134A (human) [2] = target: His-C3d N1134A (human) (UniProt P01024); experiment: SPR (BIAcore T200, 25°C); biotinylated ISG65-Avi immobilised, C3d N1134A as analyte
Human C3(H2O) (human) [3] = target: Human C3(H2O) (human) (UniProt P01024); experiment: SPR (BIAcore T200, 25°C); biotinylated ISG65-Avi immobilised, C3(H2O) as analyte; column koff1
His-C3d N1134A (human) [4] = target: His-C3d N1134A (human) (UniProt P01024); experiment: SPR (BIAcore T200, 25°C); biotinylated ISG65-Avi immobilised, C3d N1134A as analyte; relative to wild type
His-C3d N1134A (human) [5] = target: His-C3d N1134A (human) (UniProt P01024); experiment: SPR; ISG65-Avi immobilised, C3d mutant as analyte; the table prints 25
Human C3(H2O) (human) [6] = target: Human C3(H2O) (human) (UniProt P01024); experiment: SPR (BIAcore T200, 25°C); biotinylated ISG65-Avi immobilised, C3(H2O) as analyte
His-C3d N1134A (human) [7] = target: His-C3d N1134A (human) (UniProt P01024); experiment: SPR (BIAcore T200, 25°C); biotinylated ISG65-Avi immobilised, C3d N1134A as analyte; column kon1
His-C3d N1134A (human) [8] = target: His-C3d N1134A (human) (UniProt P01024); experiment: SPR (BIAcore T200, 25°C); biotinylated ISG65-Avi immobilised, C3d N1134A as analyte; column koff1
His-C3d E1110A = target: T1, His-C3d E1110A (human, UniProt P01024 996-1303); experiment: SPR (BIAcore T200, 25°C); biotinylated ISG65-Avi immobilised, C3d E1110A as analyte
T1 construct: domain: C3d; not shown: His-tag

[9] = target: T2, Native human complement factor 3 (C3) (human, UniProt P01024 23-667; P01024 672-1663); experiment: SPR (BIAcore T200, 25°C); biotinylated ISG65-Avi immobilised, C3 as analyte
T2 construct: Purified from normal human serum (Sigma-Aldrich); also called native C3; human C3

[10] = target: T3, Human C3a (ANA domain of C3 when released) (human, UniProt P01024 672-748); experiment: SPR (BIAcore T200, 25°C); biotinylated ISG65-Avi immobilised, C3a as analyte
T3 construct: domain: C3a; also called free C3a; recombinant C3a

Human C3b [11] = target: T4, Human C3b (human, UniProt P01024 749-1663; P01024 23-667); experiment: SPR (BIAcore T200, 25°C); biotinylated ISG65-Avi immobilised, C3b as analyte; column kon1
T4 construct: domain: α-chain of C3b;domain: β-chain of C3b

Human C3b [12] = target: T4, Human C3b; experiment: SPR (BIAcore T200, 25°C); biotinylated ISG65-Avi immobilised, C3b as analyte
[13] = target: T5, His-C3d (recombinant human C3d, thioester domain of C3) (human, UniProt P01024 996-1303); experiment: SPR (BIAcore T200, 25°C); biotinylated ISG65-Avi immobilised, C3d Wt as analyte; column koff1
T5 construct: domain: C3d; also called C3d Wt; TED; not shown: His-tag

[14] = target: T5, His-C3d (recombinant human C3d, …); experiment: SPR (BIAcore T200, 25°C); biotinylated ISG65-Avi immobilised, C3d Wt as analyte; column kon1
[15] = target: T2, Native human complement factor 3 (C3); experiment: SPR (BIAcore T200, 25°C); biotinylated ISG65-Avi immobilised, C3 as analyte; column kon1
His-C3d L1109A = target: T6, His-C3d L1109A (human, UniProt P01024 996-1303); experiment: SPR (BIAcore T200, 25°C); biotinylated ISG65-Avi immobilised, C3d L1109A as analyte
T6 construct: domain: C3d; not shown: His-tag

Human C3b [16] = target: T4, Human C3b; experiment: SPR (BIAcore T200, 25°C); biotinylated ISG65-Avi immobilised, C3b as analyte; column koff1
[17] = target: T5, His-C3d (recombinant human C3d, …); experiment: SPR (BIAcore T200, 25°C); biotinylated ISG65-Avi immobilised, C3d Wt as analyte
[18] = target: T2, Native human complement factor 3 (C3); experiment: SPR (BIAcore T200, 25°C); biotinylated ISG65-Avi immobilised, C3 as analyte; column koff1
[19] = target: T7, His-C3d-Avi (N-terminal His-tag, C-terminal Avi-tag, biotinylated) (human, UniProt P01024 996-1303, site-specific biotin on the C-terminal Avi-tag); experiment: SPR (BIAcore T200, 25°C); biotinylated C3d-Avi immobilised, ISG65 Y293A as analyte
T7 construct: domain: C3d; Immobilised ligand in SPR for the ISG65 mutants; not shown: N-terminal His-tag; C-terminal Avi-tag
T7 sequence (P01024 996-1303 limits assumed): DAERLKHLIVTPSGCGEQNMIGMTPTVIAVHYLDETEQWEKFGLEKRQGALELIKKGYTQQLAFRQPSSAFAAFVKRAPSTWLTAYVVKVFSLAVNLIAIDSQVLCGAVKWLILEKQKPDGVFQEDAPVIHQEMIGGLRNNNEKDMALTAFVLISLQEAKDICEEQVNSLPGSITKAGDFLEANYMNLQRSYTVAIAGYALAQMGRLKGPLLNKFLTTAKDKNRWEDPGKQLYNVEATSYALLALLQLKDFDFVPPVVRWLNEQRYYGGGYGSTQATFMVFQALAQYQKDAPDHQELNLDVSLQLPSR

T4 sequence (P01024 749-1663 limits assumed, chain 1 of 2): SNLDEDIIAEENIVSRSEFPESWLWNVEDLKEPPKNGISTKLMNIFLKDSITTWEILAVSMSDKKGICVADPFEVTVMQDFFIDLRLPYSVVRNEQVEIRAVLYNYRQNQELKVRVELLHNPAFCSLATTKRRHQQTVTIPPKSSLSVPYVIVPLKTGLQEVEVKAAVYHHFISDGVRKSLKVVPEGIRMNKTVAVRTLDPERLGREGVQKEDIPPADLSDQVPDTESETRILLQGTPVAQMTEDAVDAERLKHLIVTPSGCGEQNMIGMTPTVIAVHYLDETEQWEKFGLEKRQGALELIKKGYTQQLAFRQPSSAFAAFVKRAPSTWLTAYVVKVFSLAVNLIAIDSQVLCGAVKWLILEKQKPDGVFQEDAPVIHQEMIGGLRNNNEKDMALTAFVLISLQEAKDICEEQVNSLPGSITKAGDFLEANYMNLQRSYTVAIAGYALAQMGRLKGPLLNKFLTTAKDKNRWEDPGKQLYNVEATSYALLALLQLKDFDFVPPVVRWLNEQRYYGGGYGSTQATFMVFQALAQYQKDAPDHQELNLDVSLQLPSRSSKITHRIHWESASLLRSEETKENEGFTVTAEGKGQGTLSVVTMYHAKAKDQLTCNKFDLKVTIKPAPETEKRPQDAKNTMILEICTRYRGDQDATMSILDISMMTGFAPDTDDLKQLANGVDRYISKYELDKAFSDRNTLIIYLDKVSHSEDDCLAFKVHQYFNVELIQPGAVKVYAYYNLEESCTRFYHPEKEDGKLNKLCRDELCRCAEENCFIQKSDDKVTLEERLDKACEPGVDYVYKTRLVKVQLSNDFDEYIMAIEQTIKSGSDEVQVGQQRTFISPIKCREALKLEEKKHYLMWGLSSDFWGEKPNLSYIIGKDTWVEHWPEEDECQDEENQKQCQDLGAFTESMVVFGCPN
T4 sequence (P01024 23-667 limits assumed, chain 2 of 2): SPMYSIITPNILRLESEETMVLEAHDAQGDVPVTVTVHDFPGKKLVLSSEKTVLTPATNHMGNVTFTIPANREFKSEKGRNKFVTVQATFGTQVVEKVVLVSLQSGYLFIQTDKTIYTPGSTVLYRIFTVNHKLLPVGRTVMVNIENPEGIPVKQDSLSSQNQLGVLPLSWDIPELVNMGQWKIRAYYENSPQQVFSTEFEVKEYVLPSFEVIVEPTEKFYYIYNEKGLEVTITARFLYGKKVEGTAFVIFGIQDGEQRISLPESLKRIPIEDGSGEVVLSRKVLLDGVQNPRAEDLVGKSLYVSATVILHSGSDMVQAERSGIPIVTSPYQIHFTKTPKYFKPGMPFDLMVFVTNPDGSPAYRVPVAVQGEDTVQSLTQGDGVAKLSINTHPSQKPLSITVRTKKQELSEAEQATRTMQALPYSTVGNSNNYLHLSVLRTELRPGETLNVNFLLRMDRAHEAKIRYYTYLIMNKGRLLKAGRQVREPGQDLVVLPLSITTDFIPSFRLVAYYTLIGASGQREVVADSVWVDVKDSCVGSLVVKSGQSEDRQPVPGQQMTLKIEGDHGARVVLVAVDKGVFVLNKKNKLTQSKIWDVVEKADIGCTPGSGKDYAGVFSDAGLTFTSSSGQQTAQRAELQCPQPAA
T2 sequence (P01024 23-667 limits assumed, chain 1 of 2): as the sequence (P01024 23-667 limits assumed, chain 2 of 2) above
T2 sequence (P01024 672-1663 limits assumed, chain 2 of 2): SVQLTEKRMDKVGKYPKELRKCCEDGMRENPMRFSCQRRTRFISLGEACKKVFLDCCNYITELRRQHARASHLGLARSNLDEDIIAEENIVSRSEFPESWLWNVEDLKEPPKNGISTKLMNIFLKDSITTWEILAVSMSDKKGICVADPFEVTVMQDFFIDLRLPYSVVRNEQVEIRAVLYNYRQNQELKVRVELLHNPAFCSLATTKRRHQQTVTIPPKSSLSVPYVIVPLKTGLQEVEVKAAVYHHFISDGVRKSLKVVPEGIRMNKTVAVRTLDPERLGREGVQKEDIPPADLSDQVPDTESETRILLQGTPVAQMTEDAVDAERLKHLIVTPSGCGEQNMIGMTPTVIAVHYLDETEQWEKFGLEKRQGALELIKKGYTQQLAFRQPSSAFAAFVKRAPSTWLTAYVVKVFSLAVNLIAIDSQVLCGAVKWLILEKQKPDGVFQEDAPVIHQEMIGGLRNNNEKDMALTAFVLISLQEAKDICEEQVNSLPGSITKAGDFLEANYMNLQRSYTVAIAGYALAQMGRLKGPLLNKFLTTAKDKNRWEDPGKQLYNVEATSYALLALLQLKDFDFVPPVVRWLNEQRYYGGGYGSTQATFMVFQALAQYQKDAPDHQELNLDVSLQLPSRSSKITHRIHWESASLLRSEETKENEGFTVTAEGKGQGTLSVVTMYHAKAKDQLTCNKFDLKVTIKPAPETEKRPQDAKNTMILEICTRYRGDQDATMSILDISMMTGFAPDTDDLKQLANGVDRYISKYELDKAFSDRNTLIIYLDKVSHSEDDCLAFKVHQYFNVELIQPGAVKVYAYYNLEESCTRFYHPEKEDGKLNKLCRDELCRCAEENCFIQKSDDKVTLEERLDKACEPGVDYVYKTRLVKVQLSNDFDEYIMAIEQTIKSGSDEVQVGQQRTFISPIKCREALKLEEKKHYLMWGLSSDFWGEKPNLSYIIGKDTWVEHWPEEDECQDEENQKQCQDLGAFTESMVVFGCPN
T5 sequence (P01024 996-1303 limits assumed): as the sequence (P01024 996-1303 limits assumed) above
Sequence of His-C3d N1134A (human) (P01024 996-1303, stated change not applied): as the sequence (P01024 996-1303 limits assumed) above
T1 sequence (P01024 996-1303 E1110A limits assumed): as the sequence (P01024 996-1303 limits assumed) above, with E115A counted along it
T3 sequence (P01024 672-748 limits assumed): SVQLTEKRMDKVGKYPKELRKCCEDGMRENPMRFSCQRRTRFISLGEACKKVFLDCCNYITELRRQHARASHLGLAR
T6 sequence (P01024 996-1303 L1109A limits assumed): as the sequence (P01024 996-1303 limits assumed) above, with L114A counted along it

Q: How did the kon (Human C3(H2O) (human) [1]) turn out when “His-ISG65 18-363-Avi (N-terminal hexa-histidine tag, C-terminal Avi-tag, biotinylated) (receptor)” was run?
A: The kon was 942000 M⁻¹ s⁻¹.

Q: What about the Kd (His-C3d N1134A (human) [2]) of the same molecule?
A: The Kd was 28.6 nM.

Q: What about the koff (Human C3(H2O) (human) [3]) of the same molecule?
A: Its koff is 0.017 s⁻¹.

Q: What about the ISG65 binding (%) (His-C3d N1134A (human) [4]) of the same molecule?
A: The ISG65 binding (%) was 25%.

Q: What about the binding affinity (% of wild type) (His-C3d N1134A (human) [5]) of the same molecule?
A: The binding affinity (% of wild type) was 24%.

Q: What about the Kd (Human C3(H2O) (human) [6]) of the same molecule?
A: Its Kd is 18 nM.

Q: And the kon (His-C3d N1134A (human) [7])?
A: The kon was 1.89e+06 M⁻¹ s⁻¹.

Q: What about the koff (His-C3d N1134A (human) [8]) of the same molecule?
A: Its koff is 0.0542 s⁻¹.

B1: His-ISG65 18-363-Avi (N-terminal hexa-histidine tag, C-terminal Avi-tag, biotinylated) (receptor)
chain: LLVIGSEDNRVPGDKKLTKEGAAALCKMKHLADKVAKERSQELKDRTQNFAGYIEFELYRIDYWLEKLNGPKGRKDGYAKLSDSDIEKVKEIFNKAKDGITKQLPEAKKAGEEAGKLHTEVKKAAENARGQDLDDDTAKSTGLYRVLNWYCITKEERHNATPNCDGIQFRKHYLSVNRSAIDCSSTSYEENYDWSANALQVALNSWEDVKPKKLESAGSDKNCNIGQSSESHPCTMTEEWQTPYKETVEKLRELEDAYQRGKKAHDAMLGYANTAYAVNTKVEQEKPLTEVIAAAKEAGKKGAKIIIPAAAPATPTNSTKNDDSAPTEHVDRGIATNETQVEVGID
modifications: site-specific biotin on the C-terminal Avi-tag
notes: Immobilised ligand in SPR on a CAP chip; also called ISG65-Avi; biotinylated ISG65; not shown: N-terminal hexa-histidine tag of pET15b construct; C-terminal Avi-tag
Q: For B1, which Kd (His-C3d E1110A) is on record?
A: Its Kd is 15.7 nM.

Q: What about the Kd [9] of the same molecule?
A: The Kd was 129 nM.

Q: And the Kd [10]?
A: The Kd was 18100 nM.

Q: And the kon (Human C3b [11])?
A: The kon was 262000 M⁻¹ s⁻¹.

Q: And the Kd (Human C3b [12])?
A: Its Kd is 80.9 nM.

Q: And the koff [13]?
A: Its koff is 0.0379 s⁻¹.

Q: And the kon [14]?
A: Its kon is 5.24e+06 M⁻¹ s⁻¹.

Q: And the kon [15]?
A: Its kon is 81800 M⁻¹ s⁻¹.

Q: And the Kd (His-C3d L1109A)?
A: The Kd was 52.9 nM.

Q: And the koff (Human C3b [16])?
A: Its koff is 0.0212 s⁻¹.

Q: What about the Kd [17] of the same molecule?
A: Its Kd is 7.2 nM.

Q: What about the koff [18] of the same molecule?
A: The koff was 0.0543 s⁻¹.

B2: His-ISG65 18-363 Y293A (receptor)
chain: MGSSHHHHHHSSGLVPRGSHMLLVIGSEDNRVPGDKKLTKEGAAALCKMKHLADKVAKERSQELKDRTQNFAGYIEFELYRIDYWLEKLNGPKGRKDGYAKLSDSDIEKVKEIFNKAKDGITKQLPEAKKAGEEAGKLHTEVKKAAENARGQDLDDDTAKSTGLYRVLNWYCITKEERHNATPNCDGIQFRKHYLSVNRSAIDCSSTSYEENYDWSANALQVALNSWEDVKPKKLESAGSDKNCNIGQSSESHPCTMTEEWQTPYKETVEKLRELEDAYQRGKKAHDAMLGYANTAAAVNTKVEQEKPLTEVIAAAKEAGKKGAKIIIPAAAPATPTNSTKNDDSAPTEHVDRGIATNETQVEVGID
notes: also called ISG65 Y293A
Q: Does B2 bind [19]?
A: Result: no binding (tested: ISG65 analyte 1.5-100 nM)
